According to patent publication US20260242478A1 (published 2026):
Like-named read-outs stand apart in the source and are kept apart here.

B1: Peptide-272 (peptide)
peptide: LHVYCVPEWMCAGF
notes: From the Peptide-180 optimisation phage library
B2: Peptide-273 (peptide)
peptide: LEPLCVPRWMCVGF
notes: as for B1
B3: Peptide-278 (peptide)
peptide: PEHLCLPRWMCEGF
notes: as for B1
B4: Peptide-261 (peptide)
peptide: YFVQCRPAWMCEGF
notes: as for B1
B5: Peptide-265 (peptide)
peptide: AEVKCIPQWMCQGF
notes: as for B1
B6: Peptide-281 (peptide)
peptide: VNHWCVPTWMCAGF
notes: as for B1
B7: Peptide-264 (peptide)
peptide: VQIQCRPAWMCLGF
notes: as for B1
B8: Peptide-280 (peptide)
peptide: TTHVCIPSWMCSGF
notes: as for B1
B9: Peptide-287 (peptide)
peptide: PERLCTPPWMCLGF
notes: as for B1
B10: Peptide-269 (peptide)
peptide: EEPLCRPVWMCEGF
notes: as for B1
B11: Peptide-276 (peptide)
peptide: ITPICKPAWICSGF
notes: as for B1
B12: Phage-329 (peptide)
peptide: MDWCPRALWNVCFA
notes: Clonal phage of the Peptide-9 library; also called the position column gives N at position 14)
B13: Peptide-266 (peptide)
peptide: TAHHCKPAWMCTGF
notes: as for B1
B14: Phage-330 (peptide)
peptide: MDWCPRFLWDVCFN
notes: Clonal phage of the Peptide-9 library; also called the position column gives F at position 7)
B15: Peptide-279 (peptide)
peptide: YERACIPNWICEGF
notes: as for B1
B16: Peptide-262 (peptide)
peptide: IVPLCKPAWMCKLF
notes: as for B1

Legend:
[1] = molecular target: T1, anti-CD28 scFv (VH - linker 1 - VL) (biotinylated (site not stated)); test: phage ELISA as above; wells pre-incubated with soluble CD28 (competitor)
T1 sequence (scFv, as listed by the source): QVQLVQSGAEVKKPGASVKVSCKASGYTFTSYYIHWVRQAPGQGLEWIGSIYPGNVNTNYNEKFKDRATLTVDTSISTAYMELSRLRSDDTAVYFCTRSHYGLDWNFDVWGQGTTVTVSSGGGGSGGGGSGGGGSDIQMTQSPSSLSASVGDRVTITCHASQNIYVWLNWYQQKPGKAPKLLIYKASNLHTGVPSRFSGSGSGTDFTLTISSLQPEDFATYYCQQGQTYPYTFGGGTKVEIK

[2] = molecular target: T1, anti-CD28 scFv (VH - linker 1 - VL); test: phage ELISA; biotinylated anti-CD28 scFv on neutravidin plate, clonal phage supernatant, anti-M13-HRP;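 also: before the phage were added, wells were pre-incubated with soluble CD28 protein in blocking buffer, or with blocking buffer alone, and were not washed in between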
Description: (§1) Clonal phage were harvested as crude supernatants and screened via standard enzyme linked immunosorbent assays (ELISAs). […] Prior to the addition of clonal phage, wells were incubated with blocking buffer and CD28 soluble protein or blocking buffer alone. Without washing or aspirating, clonal phage supernatants were then added to the wells and incubated for a short time. Wells were then washed followed by detection of bound phage using a horse radish peroxidase conjugated anti-M13 antibody.

[3] = molecular target: T2, Anti-CD28 scFv (VH - linker 1 - VL) (biotinylated (site not stated)); test: phage ELISA as above; wells pre-incubated with soluble CD28 as competitor;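 also: crude clonal phage supernatants tested, with bound phage detected by HRP-conjugated anti-M13 antibody, and reference wells given blocking buffer without CD28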
T2 construct: Biotinylated anti-CD28 scFv captured on neutravidin coated plates in the panning ELISA
T2 sequence (scFv, as listed by the source): as above

[4] = molecular target: T2, Anti-CD28 scFv (VH - linker 1 - VL); test: phage ELISA; biotinylated anti-CD28 scFv on neutravidin plate, clonal phage supernatant, anti-M13-HRP;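 also: before the phage were added, wells were pre-incubated with soluble CD28 protein in blocking buffer, or with blocking buffer alone, and were not washed in between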
Description: as §1

PSMA Fab [5] = molecular target: T3, PSMA Fab; test: competition ELISA; peptide 0-100 µM with 0.3 nM PSMA Fab on plate-captured biotinylated PSMA
T3 construct: also called 006 PSMA Fab; anti-PSMA Fab

PSMA Fab [6] = molecular target: T3, PSMA Fab; test: as above; remark: listed apart in the source

Binder | CD28 scFv signal in presence of CD28 [1] | CD28 scFv signal [2] | other results
MDWCPKPLWHVCFA [Phage-337 clonal phage peptide MDWCPKPLWHVCFA] | 0.152 | 2.02 | 
MDWCPRHLWDECFY (Clonal phage of the Peptide-9 library) [Phage-331] |  |  | CD28 scFv signal in presence of CD28 [3]: 0.146; CD28 scFv signal [4]: 2.13
MDWCPRYLWDECFS (Clonal phage of the Peptide-9 library) [Phage-334] |  |  | CD28 scFv signal in presence of CD28 [3]: 0.164; CD28 scFv signal [4]: 2.06
MDWCPRHLWHACFS [Phage-346 clonal phage peptide MDWCPRHLWHACFS] | 0.167 | 1.83 | 
IDWCPRALWDACLA (Clonal phage of the Peptide-9 library) [Phage-332] |  |  | CD28 scFv signal in presence of CD28 [3]: 0.164; CD28 scFv signal [4]: 2.1
MDWCPIHLWYECFN [Phage-352 clonal phage peptide MDWCPIHLWYECFN] | 0.203 | 1.73 | 
MDWCPMFLWHECFS [Phage-360 clonal phage peptide … (as printed)] | 0.193 | 1.44 | 
B1 |  |  | IC50 (PSMA Fab [5]): 1920 nM
B2 |  |  | IC50 (PSMA Fab [5]): 900 nM
MDWCPRFLWNECFY [Phage-338 clonal phage peptide MDWCPRFLWNECFY] | 0.287 | 2 | 
B3 |  |  | IC50 (PSMA Fab [5]): 2400 nM
MDWCPRNLWHECFA [Phage-342 clonal phage peptide MDWCPRNLWHECFA] | 0.175 | 1.97 | 
MDWCPRPLWHECFA [Phage-359 clonal phage peptide MDWCPRPLWHECFA] | 0.138 | 1.44 | 
MDWCPMNLWHECFA [Phage-351 clonal phage peptide MDWCPMNLWHECFA] | 0.16 | 1.74 | 
B4 |  |  | IC50 (PSMA Fab [5]): 1300 nM
MDFCPRFLWHECFN [Phage-345 clonal phage peptide MDFCPRFLWHECFN] | 0.225 | 1.91 | 
LDWCPRHLWALCFN [Phage-349 clonal phage peptide LDWCPRHLWALCFN] | 0.24 | 1.78 | 
VGKLCVPEWMCVGL [Peptide-217] |  |  | IC50 (PSMA Fab [6]): 2490 nM
MAWCPWYLWDECFN [Phage-348 clonal phage peptide MAWCPWYLWDECFN] | 0.267 | 1.81 | 
VLKWCRPAWMCEVL [Peptide-216] |  |  | IC50 (PSMA Fab [6]): 2910 nM
MDWCPMYLWDECFF [Phage-356 clonal phage peptide MDWCPMYLWDECFF] | 0.178 | 1.65 | 
MDWCPRYLWLECFN [Phage-354 clonal phage peptide MDWCPRYLWLECFN] | 0.368 | 1.69 | 
MDWCPRFLWDYCFA (Clonal phage of the Peptide-9 library) [Phage-335] |  |  | CD28 scFv signal in presence of CD28 [3]: 0.207; CD28 scFv signal [4]: 2.03
MDWCPRTLWDQCFF [Phage-339 clonal phage peptide MDWCPRTLWDQCFF] | 0.314 | 1.99 | 
B5 |  |  | IC50 (PSMA Fab [5]): 1780 nM
IDWCPLHLWHECYH [Phage-353 clonal phage peptide IDWCPLHLWHECYH] | 0.182 | 1.69 | 

Binder | CD28 scFv signal in presence of CD28 [1] | CD28 scFv signal [2] | other results
B6 |  |  | IC50 (PSMA Fab [5]): 1020 nM
B7 |  |  | IC50 (PSMA Fab [5]): 1140 nM
LEKLCIPAWMCEWL [Peptide-215] |  |  | IC50 (PSMA Fab [6]): 2940 nM
MDWCPTDLWHECFA (Clonal phage of the Peptide-9 library) [Phage-333] |  |  | CD28 scFv signal in presence of CD28 [3]: 0.154; CD28 scFv signal [4]: 2.07
B8 |  |  | IC50 (PSMA Fab [5]): 6650 nM
B9 |  |  | IC50 (PSMA Fab [5]): 2220 nM
MSWCPIDLWSECFA [Phage-340 clonal phage peptide MSWCPIDLWSECFA] | 0.148 | 1.99 | 
FVPLCKPAWMCSFV [Peptide-218] |  |  | IC50 (PSMA Fab [6]): 2850 nM
B10 |  |  | IC50 (PSMA Fab [5]): 9140 nM
B11 |  |  | IC50 (PSMA Fab [5]): 3460 nM
MDWCPRDLWTQCFF [Phage-343 clonal phage peptide MDWCPRDLWTQCFF] | 0.119 | 1.93 | 
MHWCPRHLWSECFN [Phage-361 clonal phage peptide MHWCPRHLWSECFN] | 0.478 | 1.43 | 
MNWCPMHLWAECFN [Phage-363 clonal phage peptide MNWCPMHLWAECFN] | 0.14 | 1.39 | 
B12 |  |  | CD28 scFv signal in presence of CD28 [3]: 0.249; CD28 scFv signal [4]: 2.14
WEKLCTPAWMCVGF [Peptide-214] |  |  | IC50 (PSMA Fab [6]): 3540 nM
B13 |  |  | IC50 (PSMA Fab [5]): 1810 nM
B14 |  |  | CD28 scFv signal in presence of CD28 [3]: 0.309; CD28 scFv signal [4]: 2.14
MDWCPRDLWNWCFN [Phage-336 clonal phage peptide MDWCPRDLWNWCFN] | 0.39 | 2.03 | 
MDWCPWFLWNECFN [Phage-350 clonal phage peptide MDWCPWFLWNECFN] | 0.279 | 1.77 | 
MDWCPRHLWVHCFS [Phage-344 clonal phage peptide MDWCPRHLWVHCFS] | 0.173 | 1.91 | 
MDWCPRILWHECFS [Phage-362 clonal phage peptide MDWCPRILWHECFS] | 0.174 | 1.39 | 
MDWCPRLLWHECFN [Phage-357 clonal phage peptide MDWCPRLLWHECFN] | 0.109 | 1.6 | 
B15 |  |  | IC50 (PSMA Fab [5]): 5180 nM
B16 |  |  | IC50 (PSMA Fab [5]): 1300 nM
MDWCPRHLWDECFN [Phage-341 clonal phage peptide MDWCPRHLWDECFN] | 0.268 | 1.98 | 
